Legend:
[1] = biological target: human Siglec-9 expressed on human cells (human) (UniProt Q9Y336); assay: cell-based or functional assay
[2] = biological target: human Siglec-9 expressed on human cells (human) (UniProt Q9Y336); assay: flow cytometry on human primary monocytes, 10 ug/ml mAb, PE secondary
[3] = biological target: human Siglec-9 expressed on human cells (human) (UniProt Q9Y336); assay: flow cytometry on human primary macrophages, 10 ug/ml mAb, PE secondary
[4] = biological target: human Siglec-9 expressed on human cells (human) (UniProt Q9Y336); assay: flow cytometry on human primary dendritic cells, 10 ug/ml mAb, PE secondary
[5] = biological target: Histidine-tagged human Siglec-9 (NovoProtein) (human) (UniProt Q9Y336); assay: SPR Biacore T200, 25 C, 25 nM mAb captured on anti-mouse IgG CM5 chip, His-tagged Siglec-9 200 nM as analyte, single-concentration 1:1 fit
[6] = biological target: Siglec-9-Fc (R&D Systems, catalog number 1139-SL-050) (human) (UniProt Q9Y336); assay: FACS ligand competition: 25 ug/ml mAb pre-coupled with 25 ug/ml Siglec-9-Fc, binding to sialic acid ligands on U937 cells, anti-human IgG-PE
Sequence of Siglec-9-Fc (R&D Systems, catalog number 1139-SL-050) (human) (Q9Y336 18-348 limits assumed): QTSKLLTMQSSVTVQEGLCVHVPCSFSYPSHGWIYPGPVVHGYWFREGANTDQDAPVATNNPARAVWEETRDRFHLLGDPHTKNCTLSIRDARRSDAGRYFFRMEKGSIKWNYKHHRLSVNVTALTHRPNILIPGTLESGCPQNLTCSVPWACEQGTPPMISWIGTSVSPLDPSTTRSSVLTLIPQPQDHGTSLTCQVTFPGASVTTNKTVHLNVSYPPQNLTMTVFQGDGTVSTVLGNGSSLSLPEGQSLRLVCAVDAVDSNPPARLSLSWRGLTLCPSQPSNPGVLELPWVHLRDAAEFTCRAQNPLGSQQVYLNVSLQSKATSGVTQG

Sequence of human Siglec-9 expressed on human cells (human) (Q9Y336 18-463): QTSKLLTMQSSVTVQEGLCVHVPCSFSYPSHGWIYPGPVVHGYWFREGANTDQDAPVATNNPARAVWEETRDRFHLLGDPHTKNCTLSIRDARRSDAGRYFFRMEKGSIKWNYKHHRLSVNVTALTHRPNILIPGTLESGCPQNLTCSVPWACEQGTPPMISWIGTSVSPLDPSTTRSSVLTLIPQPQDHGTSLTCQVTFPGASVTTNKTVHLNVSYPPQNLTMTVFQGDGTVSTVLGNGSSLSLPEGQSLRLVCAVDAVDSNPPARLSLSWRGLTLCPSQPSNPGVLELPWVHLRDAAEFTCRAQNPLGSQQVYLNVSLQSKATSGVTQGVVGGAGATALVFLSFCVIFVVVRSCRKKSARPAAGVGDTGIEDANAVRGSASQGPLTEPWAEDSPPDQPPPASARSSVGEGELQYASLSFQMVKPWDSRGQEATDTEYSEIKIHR
Sequence of Histidine-tagged human Siglec-9 (NovoProtein) (human) (Q9Y336 18-348 limits assumed): as the sequence (Q9Y336 18-348 limits assumed) above

B1: anti-Siglec-9 antibody 6D8 (antibody, IgG2b, V domains shown, part only)
VH: VQLQQSGAELVKPGASVKLSCKASGYTFTSYWMHWVKQRPGQGLEWIGEIDPSDSYTYYNQKFKGKATLTVDKSSSTAYMQLSSLTSEDSAVYYCAAYYSNYVRAYWGQGTLVTVSA
VL: DIQKPQSPFYMCVSGGETISISSHTTRGIYWYKGGSAEKPEKPFKLEIYCARNGEGGAPSRFSGRGSGTDFSLTINRGESEDCAEYYCAQFYQFPWTFGGGTKLEIK
Question: How did the Percent Siglec-9 Surface Expression, DCs (% Siglec-9) [1] turn out when B1 was run?
Answer: Its Percent Siglec-9 Surface Expression, DCs (% Siglec-9) is 60.2%.

Question: And the Percent Siglec-9 Surface Expression, Macrophages (% Siglec-9) [1]?
Answer: Its Percent Siglec-9 Surface Expression, Macrophages (% Siglec-9) is 21.3%.

Question: What about the Percent Siglec-9 Surface Expression, Microglia (% Siglec-9) [1] of the same binder?
Answer: The Percent Siglec-9 Surface Expression, Microglia (% Siglec-9) was 45.4%.

Question: What about the Percent Siglec-9 Surface Expression, Monocytes (% Siglec-9) [1] of the same binder?
Answer: Its Percent Siglec-9 Surface Expression, Monocytes (% Siglec-9) is 42.2%.

Question: What about the Percent Siglec-9 Surface Expression, THP-1 cells (% Siglec-9) [1] of the same binder?
Answer: Its Percent Siglec-9 Surface Expression, THP-1 cells (% Siglec-9) is 62.6%.

Question: And the % Positive [2]?
Answer: The % Positive was 29.6%.

Question: What about the MFI [2] of the same binder?
Answer: Its MFI is 198.

Question: What about the % Positive [3] of the same binder?
Answer: The % Positive was 93.5%.

Question: What about the MFI [3] of the same binder?
Answer: Its MFI is 473.

Question: And the % Positive [4]?
Answer: The % Positive was 27.6%.

Question: And the MFI [4]?
Answer: The MFI was 197.

Question: And the Kd [5]?
Answer: Its Kd is 6.7 nM.

Question: And the Percent Siglec-9-Fc Binding [6]?
Answer: Its Percent Siglec-9-Fc Binding is 97.8%.

Reference: patent US20190062427A1
